Experimental findings from patent publication US20110245145 are described below.

The test system of the data set is HA-βarrestin2 1-185.

With endogenous Src of Hep3B hepatocytes, the “insulin-stimulated phosphorylations of Akt, GSK3P, and Foxo1” value is reported as “markedly reduced in the presence of βarrestin2 1-185”.
